Assay results reported in paper PMC5493754, “Myosin 7 and its adaptors link cadherins to actin” (Nature Communications, 2017).
Residue numbers refer to the chain shown, from its start.

Tests used:
Experiment in all cases: MST; YFP-fused partner constant at 100 nM, non-fluorescent protein titrated (16 two-fold dilutions); 20 mM Hepes pH 7.0, 100 mM NaCl, 1 mM EGTA, 0.5 mM TCEP, 0.05% Tween 20; Monolith NT.115
Settings in all cases: both partners purified
[1] = target: T1, Myo7a MF2 G2163S (deafness mutant) (human, UniProt Q13402-1 1702-2215, G2163S)
T1 construct: Myosin 7a, human, MF2, residues 1702-2215 of UniProt Q13402-1, with a deafness missense mutation; source: E. coli, purified similarly as wild type (Histrap, CaptoQ, gel filtration)
T1 sequence (looked up): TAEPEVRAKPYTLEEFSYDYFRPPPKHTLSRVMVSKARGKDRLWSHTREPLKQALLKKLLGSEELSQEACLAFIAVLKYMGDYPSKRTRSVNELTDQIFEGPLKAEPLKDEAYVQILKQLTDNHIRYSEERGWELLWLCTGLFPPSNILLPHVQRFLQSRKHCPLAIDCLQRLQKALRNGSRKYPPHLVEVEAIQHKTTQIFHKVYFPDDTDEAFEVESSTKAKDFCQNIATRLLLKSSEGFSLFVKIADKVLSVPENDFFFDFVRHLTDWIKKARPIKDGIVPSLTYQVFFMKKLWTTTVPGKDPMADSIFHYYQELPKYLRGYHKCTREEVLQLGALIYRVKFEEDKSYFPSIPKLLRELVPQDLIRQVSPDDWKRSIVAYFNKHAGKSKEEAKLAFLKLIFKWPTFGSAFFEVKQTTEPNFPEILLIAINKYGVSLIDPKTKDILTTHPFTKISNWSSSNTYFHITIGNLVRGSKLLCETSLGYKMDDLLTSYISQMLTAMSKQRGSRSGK

[2] = target: T2, Myo7a MF2 K2118N (deafness mutant) (human, UniProt Q13402-1 1702-2215, K2118N)
T2 construct: Myosin 7a, human, MF2, residues 1702-2215 of UniProt Q13402-1, with a deafness missense mutation; source: E. coli, purified similarly as wild type (Histrap, CaptoQ, gel filtration)
T2 sequence (looked up): T1 sequence (looked up) with K417N, S462G

[3] = target: T3, Myo7a MF2 G1982E (deafness mutant) (human, UniProt Q13402-1 1702-2215, G1982E)
T3 construct: Myosin 7a, human, MF2, residues 1702-2215 of UniProt Q13402-1, with a deafness missense mutation; source: E. coli, purified similarly as wild type (Histrap, CaptoQ, gel filtration)
T3 sequence (looked up): T1 sequence (looked up) with G281E, S462G

[4] = target: T4, Myo7a MF2 G1982R (deafness mutant) (human, UniProt Q13402-1 1702-2215, G1982R)
T4 construct: Myosin 7a, human, MF2, residues 1702-2215 of UniProt Q13402-1, with a deafness missense mutation; source: E. coli, purified similarly as wild type (Histrap, CaptoQ, gel filtration)
T4 sequence (looked up): T1 sequence (looked up) with G281R, S462G

Kd [1]: > 60 µM | Kd [2]: > 60 µM | Kd [3]: > 60 µM | Kd [4]: > 60 µM
B1: YFP-Harmonin-a PDZ3c (domain or fragment, human, UniProt Q9Y6N9-1 428-552, looked up)
chain: QDFRKYEEGFDPYSMFTPEQIMGKDVRLLRIKKEGSLDLALEGGVDSPIGKVVVSAVYERGAAERHGGIVKGDEIMAINGKIVTDYTLAEAEAALQKAWNQGGDWIDLVVAVCPPKEYDDELTFF
notes: Harmonin-a1 (USH1C), human, residues 428-552 of UniProt Q9Y6N9-1; also called ^YFPPDZ3c (isoA); source: E. coli BL21 (DE3) Rosetta, purified (Glutathione Sepharose 4B, size-exclusion chromatography)
